Test results reported in patent publication US20210347908A1 (ELPISCIENCE SUZHOU BIOPHARMA, published 2021).
Where a chain is given by its changes, count along the chain named. Values belong to the binder of their own block, whether it stands above or below them.

Columns and labels:
[1] = target: T1, Fc tagged human SIRPα v1 ECD recombinant protein (human, UniProt P78324 31-370); assay: ELISA
T1 construct: range 1-370; cloned range M1-R370 includes the signal peptide; also called hSIRPα V1; not shown: human IgG Fc region (hFc) of the pCPC vector

[2] = target: T2, Fc tagged human SIRPα v2 ECD recombinant protein (human); assay: ELISA
T2 construct: range 1-369; cloned range M1-R369 includes the signal peptide; also called hSIRPα V2

[3] = target: T3, Fc tagged human SIRPβ ECD recombinant protein (human, UniProt O00241 30-371); assay: ELISA
T3 construct: range 1-371; cloned range includes the signal peptide; also called hSIRPβ; not shown: human IgG Fc region (hFc) of the pCPC vector

[4] = target: T4, Fc tagged human SIRPγ ECD recombinant protein (human, UniProt Q9P1W8 29-360); assay: ELISA
T4 construct: range 1-360; cloned range includes the signal peptide; also called hSIRPγ; not shown: human IgG Fc region (hFc) of the pCPC vector

[5] = target: T5, 6×His tagged human SIRPα v8 ECD recombinant protein (human); assay: ELISA
T5 construct: extracellular domain; bought; also called hSIRPα V8

[6] = target: T6, 6×His tagged human SIRPα v1 ECD recombinant protein (human, UniProt P78324 31-373); assay: SPR (Biacore)
T6 construct: extracellular domain; bought; also called hSIRPα V1 (SPR antigen)

[7] = target: T7, full length human SIRPα v1 stably expressed on CHOK1 cells (human, UniProt P78324 31-504); assay: FACS on CHOK1 cells
T7 construct: whole, on cells; also called CHOK1-human SIRPα v1-1B4 cells; CHOK1-human SIRPα v1
Method: (§1) Species cross reactivity of the purified hybridoma antibodies against human, cyno and mouse SIRPα was determined by FACS assay using CHOK1-human SIRPα v1-1B4 cells, CHOK1-cyno SIRPα-2A2 cells, and CHOK1-C57BL/6 mouse SIRPα-2.22 cells, which stably expressing SIRPα protein. Briefly the antibodies were incubated with 2×10⁵ target cells at 4° C. for 1 hour. After washing, fluorescence labeled anti-mouse or anti-human IgG 2nd antibody (Life Technologies) was added and incubated at 4° C. for 1 hour. Geometric median fluorescence intensity was detected and EC₅₀ was calculated. In particular, it is noted, in contrast to the other antibodies tested in the same experiment, 060 cannot bind with cyno SIRPα and 035 has cross reactivity against C57BL/6 mouse SIRPα.

[8] = target: T8, full length cyno SIRPα stably expressed on CHOK1 cells (cynomolgus monkey, UniProt A0A2K5VYQ9 31-507); assay: FACS on CHOK1 cells
T8 construct: whole, on cells; also called CHOK1-cyno SIRPα-2A2 cells; CHOK1-cyno SIRPα
T8 sequence: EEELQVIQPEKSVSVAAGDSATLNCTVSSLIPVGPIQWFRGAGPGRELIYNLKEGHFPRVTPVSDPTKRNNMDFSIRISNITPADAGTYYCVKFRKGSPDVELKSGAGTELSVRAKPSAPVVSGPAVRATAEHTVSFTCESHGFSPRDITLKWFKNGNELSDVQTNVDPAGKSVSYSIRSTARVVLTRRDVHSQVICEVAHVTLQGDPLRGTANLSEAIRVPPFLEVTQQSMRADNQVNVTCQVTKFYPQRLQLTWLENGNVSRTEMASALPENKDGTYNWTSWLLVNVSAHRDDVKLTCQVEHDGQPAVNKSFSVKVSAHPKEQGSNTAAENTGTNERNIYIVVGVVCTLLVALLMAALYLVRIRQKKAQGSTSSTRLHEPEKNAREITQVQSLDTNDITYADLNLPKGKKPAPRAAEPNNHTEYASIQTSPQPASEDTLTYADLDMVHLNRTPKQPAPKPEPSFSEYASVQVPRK
Method: as §1

[9] = target: T9, full length C57BL/6 mouse SIRPα stably expressed on CHOK1 cells (mouse (C57BL/6), UniProt P97797 32-513); assay: FACS on CHOK1 cells
T9 construct: whole, on cells; also called CHOK1-C57BL/6 mouse SIRPα-2.22 cells
T9 sequence (looked up): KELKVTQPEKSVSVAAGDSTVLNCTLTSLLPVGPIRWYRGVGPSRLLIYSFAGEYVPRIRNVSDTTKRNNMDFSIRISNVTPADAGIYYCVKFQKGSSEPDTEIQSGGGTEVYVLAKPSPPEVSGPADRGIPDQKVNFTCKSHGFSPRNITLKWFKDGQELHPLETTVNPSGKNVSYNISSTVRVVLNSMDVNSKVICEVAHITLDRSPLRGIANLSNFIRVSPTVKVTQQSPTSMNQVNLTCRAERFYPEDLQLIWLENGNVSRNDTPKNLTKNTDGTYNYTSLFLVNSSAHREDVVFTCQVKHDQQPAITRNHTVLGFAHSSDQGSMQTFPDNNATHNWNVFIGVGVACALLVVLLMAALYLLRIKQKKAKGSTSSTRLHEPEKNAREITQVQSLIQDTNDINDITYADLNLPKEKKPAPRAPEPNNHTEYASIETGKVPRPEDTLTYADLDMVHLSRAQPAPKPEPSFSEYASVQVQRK
Method: as §1

[10] = target: T6, 6×His tagged human SIRPα v1 ECD …; assay: SPR (Biacore), antibody captured
Method: (§2) Anti-SIRPα chimeric antibodies were characterized for binding affinity against human SIRPα v1, human SIRPα v2 and C57BL/6 mouse SIRPα using Biacore (GE). Briefly the antibodies to be tested were captured to CM5 chip (GE) using Human Antibody Capture Kit (GE). The antigens of 6×His tagged human SIRPα v1, human SIRPα v2 and C57BL/6 mouse SIRPα ECD recombinant proteins were serially diluted for multiple doses and injected at 30 μl/min for 180 s. Buffer flow was maintained for dissociation of 400 s. 3 M MgCl₂ was used for chip regeneration. The association and dissociation curves were fit with 1:1 binding model, and the Ka/Kd/KD values for each antibody were calculated.

[11] = target: T10, biotin labeled soluble human SIRPα v1 ECD recombinant protein (human, UniProt P78324 31-373, biotin labeled); assay: competitive ELISA, hSIRPα/CD47 blocking
T10 construct: extracellular domain

[12] = target: T11, 6×His tagged C57BL/6 mouse SIRPα ECD recombinant protein (mouse (C57BL/6), UniProt P97797 32-373); assay: ELISA on coated mouse SIRPα (C57BL/6) ECD [Continued) F]
T11 construct: extracellular domain; bought; also called mSIRPα (C57BL/6); mouse SIRPα (C57BL/6) ECD
T11 sequence: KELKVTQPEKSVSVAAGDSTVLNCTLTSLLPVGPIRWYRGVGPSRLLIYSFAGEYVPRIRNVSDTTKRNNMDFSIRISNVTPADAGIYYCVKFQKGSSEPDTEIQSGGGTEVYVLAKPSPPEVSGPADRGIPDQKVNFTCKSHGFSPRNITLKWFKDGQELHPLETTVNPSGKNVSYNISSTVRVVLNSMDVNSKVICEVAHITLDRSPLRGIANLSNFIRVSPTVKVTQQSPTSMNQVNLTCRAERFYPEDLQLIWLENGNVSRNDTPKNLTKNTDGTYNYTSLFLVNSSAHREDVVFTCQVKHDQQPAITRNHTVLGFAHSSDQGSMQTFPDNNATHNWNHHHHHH

[13] = target: T12, 6×His tagged human SIRPα v2 ECD recombinant protein (human); assay: SPR (Biacore)
[14] = target: T11, 6×His tagged C57BL/6 mouse SIRPα ECD …; assay: SPR (Biacore)
[15] = target: T12, 6×His tagged human SIRPα v2 ECD …; assay: SPR (Biacore), antibody captured
Method: as §2

[16] = target: T11, 6×His tagged C57BL/6 mouse SIRPα ECD …; assay: SPR (Biacore), antibody captured
Method: as §2

T4 sequence (Q9P1W8 29-360 limits assumed, form in doubt): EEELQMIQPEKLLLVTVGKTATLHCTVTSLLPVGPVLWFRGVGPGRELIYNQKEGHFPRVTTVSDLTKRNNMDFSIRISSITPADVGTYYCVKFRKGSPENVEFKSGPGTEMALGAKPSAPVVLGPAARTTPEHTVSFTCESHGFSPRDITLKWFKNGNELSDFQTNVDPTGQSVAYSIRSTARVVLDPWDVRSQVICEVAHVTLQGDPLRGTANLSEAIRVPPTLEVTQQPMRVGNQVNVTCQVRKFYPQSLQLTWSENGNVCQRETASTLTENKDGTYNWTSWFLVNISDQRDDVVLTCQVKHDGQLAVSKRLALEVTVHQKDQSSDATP
T10 sequence (P78324 31-373): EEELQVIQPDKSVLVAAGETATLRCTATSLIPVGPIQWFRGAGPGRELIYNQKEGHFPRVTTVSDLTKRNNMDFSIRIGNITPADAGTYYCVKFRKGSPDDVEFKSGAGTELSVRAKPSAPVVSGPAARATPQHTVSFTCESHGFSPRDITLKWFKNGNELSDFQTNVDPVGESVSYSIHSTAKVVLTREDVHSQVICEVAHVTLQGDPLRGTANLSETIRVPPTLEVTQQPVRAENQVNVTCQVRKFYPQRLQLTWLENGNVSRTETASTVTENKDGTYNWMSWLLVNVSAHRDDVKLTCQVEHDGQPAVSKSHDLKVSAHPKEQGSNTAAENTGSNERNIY
T12 sequence (chain, as listed by the source): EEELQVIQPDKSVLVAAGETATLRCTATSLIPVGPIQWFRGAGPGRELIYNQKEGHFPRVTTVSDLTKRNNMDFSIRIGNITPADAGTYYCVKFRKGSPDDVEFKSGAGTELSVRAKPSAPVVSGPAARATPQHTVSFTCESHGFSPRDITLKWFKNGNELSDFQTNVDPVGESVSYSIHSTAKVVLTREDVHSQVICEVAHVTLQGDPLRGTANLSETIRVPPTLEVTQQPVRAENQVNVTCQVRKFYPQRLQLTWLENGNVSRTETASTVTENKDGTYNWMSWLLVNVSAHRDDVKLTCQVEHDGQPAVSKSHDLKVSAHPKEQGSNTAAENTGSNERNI
T6 sequence (P78324 other isoform, or with tags, fused parts or gaps): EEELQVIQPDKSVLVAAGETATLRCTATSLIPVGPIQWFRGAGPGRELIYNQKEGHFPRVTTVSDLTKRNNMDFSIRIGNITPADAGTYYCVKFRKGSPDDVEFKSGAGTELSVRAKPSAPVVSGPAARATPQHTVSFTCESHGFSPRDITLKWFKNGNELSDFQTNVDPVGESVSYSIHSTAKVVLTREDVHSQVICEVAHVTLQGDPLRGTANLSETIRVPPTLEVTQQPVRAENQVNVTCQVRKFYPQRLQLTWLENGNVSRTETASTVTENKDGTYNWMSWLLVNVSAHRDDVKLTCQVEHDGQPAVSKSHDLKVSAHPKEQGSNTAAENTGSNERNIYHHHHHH
T3 sequence (O00241 30-371 limits assumed, form in doubt): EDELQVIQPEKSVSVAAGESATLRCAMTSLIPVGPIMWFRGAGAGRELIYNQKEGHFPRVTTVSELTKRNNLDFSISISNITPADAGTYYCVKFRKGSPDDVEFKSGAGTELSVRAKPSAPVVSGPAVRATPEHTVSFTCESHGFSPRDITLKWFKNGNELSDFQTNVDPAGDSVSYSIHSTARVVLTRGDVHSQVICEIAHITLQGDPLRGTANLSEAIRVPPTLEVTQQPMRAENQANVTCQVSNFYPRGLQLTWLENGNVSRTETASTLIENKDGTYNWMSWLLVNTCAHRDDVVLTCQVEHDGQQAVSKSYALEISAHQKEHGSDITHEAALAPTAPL
T1 sequence (P78324 31-370 limits assumed): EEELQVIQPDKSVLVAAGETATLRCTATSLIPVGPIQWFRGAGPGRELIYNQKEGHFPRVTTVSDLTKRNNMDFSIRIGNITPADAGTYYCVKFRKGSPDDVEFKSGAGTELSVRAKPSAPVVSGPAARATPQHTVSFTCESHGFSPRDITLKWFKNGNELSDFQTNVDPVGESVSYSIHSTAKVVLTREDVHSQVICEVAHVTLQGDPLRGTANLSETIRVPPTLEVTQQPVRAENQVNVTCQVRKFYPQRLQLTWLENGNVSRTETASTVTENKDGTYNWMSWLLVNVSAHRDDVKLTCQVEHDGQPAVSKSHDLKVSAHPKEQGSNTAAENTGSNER

EC50 [1]: 0.13 nM
EC50 [2]: 0.19 nM
EC50 [3]: 0.23 nM
EC50 [4]: 1.05 nM
EC50 [5]: 0.21 nM
Kd [6]: 2.17 nM
EC50 [7]: 1.45 nM
EC50 [8]: 0.36 nM
MFI at 2 ug/ml [9]: 950 MFI
Kd [10]: 2.17 nM
koff [10]: 0.000191 s⁻¹
kon [10]: 88300 M⁻¹ s⁻¹
IC50 [11]: 1.36 nM
EC50 (read off the curve) [12]: ~0.04 µg/mL
B1: humanized antibody hu035.09 (antibody, V domains shown)
VH: QIQLVQSGSELKKPGASVKVSCRAGGYTLTDYAMNWVRQAPGQGLEWMGFINTYTGEPTYAQGFKGRFVFSLDTSVSTAYLQIGSLKAEDTAVYYCARTRGYYDFDGGAFDYWGQGTLVTVSS
VL: DIQMTQSPSSLSASVGDRVTITCRASQNVGTHLAWYQQKPGKAPKSLIYSAIYRYIGVPSRFSGSGSGTDFTLTISSLQPEDFATYYCQQYNTYPLTFGQGTKLEIK

EC50 [1]: 0.15 nM
EC50 [2]: 0.16 nM
EC50 [3]: 0.23 nM
EC50 [4]: 0.52 nM
EC50 [5]: 0.28 nM
Kd [6]: 1.44 nM
EC50 [7]: 1.31 nM
EC50 [8]: 0.36 nM
MFI at 2 ug/ml [9]: 1050 MFI
Kd [10]: 1.44 nM
koff [10]: 0.000129 s⁻¹
kon [10]: 89200 M⁻¹ s⁻¹
IC50 [11]: 1.46 nM
EC50 (read off the curve) [12]: ~0.04 µg/mL
B4: humanized antibody hu035.14 (antibody, V domains shown)
VH: B1 VH with R23K, G25S, T28S, L29I, G84S
VL: B1 VL with A43S, S46A, Y49F, S77N

More lines, now with the values behind:

B2: humanized antibody hu035.13 (antibody, V domains shown)
VH: B1 VH with R23K, G25S, T28S, L29I, D31N, G84S
VL: DIQMTQSPSRLGASVGDRVTITCRASQNVGTHLAWYQQKPGKAPKSLIYSAIYRYIGVPSRFSGSGSGTDFTLTISSLQPEDFATYFCQQYNTYPLTFDQGTKLEIKR
EC50 [1]: 0.14 nM
EC50 [2]: 0.17 nM
EC50 [3]: 0.18 nM
EC50 [4]: 0.67 nM
EC50 [5]: 0.16 nM
Kd [13]: 1.24 nM
Kd [6]: 0.61 nM
Kd [14]: 45.8 nM
EC50 [7]: 1.03 nM
EC50 [8]: 0.26 nM
MFI at 2 ug/ml [9]: 876 MFI
Kd [15]: 3.2 nM
koff [15]: 0.000189 s⁻¹
kon [15]: 59200 M⁻¹ s⁻¹
Kd [10]: 0.61 nM
koff [10]: 0.000117 s⁻¹
kon [10]: 192000 M⁻¹ s⁻¹
Kd [16]: 45.8 nM
koff [16]: 0.00259 s⁻¹
kon [16]: 56600 M⁻¹ s⁻¹
IC50 [11]: 1.33 nM

B3: humanized antibody hu035.17 (antibody, V domains shown)
VH: B1 VH with G25R
VL: B2 VL with R10S, G12S
EC50 [1]: 0.18 nM
EC50 [2]: 0.15 nM
EC50 [3]: 0.15 nM
EC50 [4]: 0.54 nM
EC50 [5]: 0.26 nM
Kd [13]: 1.43 nM
Kd [6]: 0.86 nM
Kd [14]: 25.9 nM
EC50 [7]: 1.15 nM
EC50 [8]: 0.24 nM
MFI at 2 ug/ml [9]: 1120 MFI
Kd [15]: 2.17 nM
koff [15]: 0.000191 s⁻¹
kon [15]: 88300 M⁻¹ s⁻¹
Kd [10]: 0.86 nM
koff [10]: 0.00012 s⁻¹
kon [10]: 140000 M⁻¹ s⁻¹
Kd [16]: 25.9 nM
koff [16]: 0.0015 s⁻¹
kon [16]: 57900 M⁻¹ s⁻¹
IC50 [11]: 1.22 nM
EC50 (read off the curve) [12]: ~0.04 µg/mL

B5: humanized antibody hu035.10 (antibody, V domains shown)
VH: B1 VH with G25R
VL: B1 VL with A43S, S46A, Y49F, S77N
EC50 [1]: 0.19 nM
EC50 [2]: 0.16 nM
EC50 [3]: 0.19 nM
EC50 [4]: 0.34 nM
EC50 [5]: 0.18 nM
Kd [13]: 2.15 nM
Kd [6]: 3.82 nM
Kd [14]: 33.8 nM
EC50 [7]: 1.44 nM
EC50 [8]: 0.33 nM
MFI at 2 ug/ml [9]: 1110 MFI
Kd [15]: 1.64 nM
koff [15]: 0.00017 s⁻¹
kon [15]: 104000 M⁻¹ s⁻¹
Kd [10]: 3.82 nM
koff [10]: 0.000238 s⁻¹
kon [10]: 62100 M⁻¹ s⁻¹
Kd [16]: 33.8 nM
koff [16]: 0.00152 s⁻¹
kon [16]: 45000 M⁻¹ s⁻¹
IC50 [11]: 1.49 nM
EC50 (read off the curve) [12]: ~0.04 µg/mL
